The term Kd denotes the equilibrium constant for the complex coming apart.

Common to all, as to assay: fluorescence anisotropy
A general note: In fluorescence polarisation assays a small probe gives low polarisation when free and higher when bound to something large.

Data set [1] addresses T1, SAMHD1 T592A (UniProt Q9Y3Z3 1-626, T592A).
Data set [2] addresses T2, SAMHD1 WT (UniProt Q9Y3Z3 1-626).
Data set [3] has as its target T2, SAMHD1 WT. This is another data set of the same source.
Data set [4] addresses T1, SAMHD1 T592A. The source holds these as a separate data set.
The target in data set [5] is T2, SAMHD1 WT. The source holds these as a separate data set.

Like-named read-outs stand apart in the source and are kept apart here.

T2 sequence (Q9Y3Z3 whole entry): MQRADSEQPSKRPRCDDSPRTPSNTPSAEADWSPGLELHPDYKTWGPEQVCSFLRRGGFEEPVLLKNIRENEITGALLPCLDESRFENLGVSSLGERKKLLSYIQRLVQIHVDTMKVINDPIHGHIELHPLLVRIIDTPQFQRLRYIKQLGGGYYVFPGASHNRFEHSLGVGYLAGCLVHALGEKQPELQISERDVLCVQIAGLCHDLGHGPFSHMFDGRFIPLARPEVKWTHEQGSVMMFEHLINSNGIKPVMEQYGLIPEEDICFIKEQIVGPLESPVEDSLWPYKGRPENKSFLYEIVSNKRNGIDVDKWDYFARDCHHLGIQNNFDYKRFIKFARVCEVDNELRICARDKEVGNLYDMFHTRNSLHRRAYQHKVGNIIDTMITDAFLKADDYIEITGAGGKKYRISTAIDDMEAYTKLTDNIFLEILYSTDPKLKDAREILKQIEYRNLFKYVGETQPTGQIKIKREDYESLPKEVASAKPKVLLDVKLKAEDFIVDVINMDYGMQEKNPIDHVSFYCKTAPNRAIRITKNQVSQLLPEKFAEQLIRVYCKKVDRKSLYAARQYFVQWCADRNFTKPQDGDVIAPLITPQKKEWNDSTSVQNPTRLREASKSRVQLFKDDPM
T1 sequence (Q9Y3Z3 whole entry T592A): as the sequence (Q9Y3Z3 whole entry) above, with T592A counted along it

B1: HIV-1 LTR 90-mer (ssDNA)
DNA: AGCAGTGGCGCCCGAACAGGGACTTGAAAGCGAAAGTAAAGCCAGAGGAGATCTCTCGACGCAGGACTCGGCTTGCTGAAGCGCGCACGG
As to B1, the binding result in data set [1] is on record as “no binding”. In addition, the dissociation constant Kd in data set [2] turned out to be 93 ± 8 nM; in data set [3] it was 242 ± 51 nM.

B2: Scrambled DNA 90-mer (ssDNA)
DNA: ACTAGCTCAAGCGGGGGACACCCAGGTGTCTCCAACAGTCCGTAGATCGGACGGAGAAGAGGGGACCCCGCTAATGAGCGTGAGCAGAGA
As to B2, the binding result in data set [4] and in data set [5] was “no binding” each time.

The values above are taken from article doi:10.1101/270843.
